Numbering of substitutions follows the chain as printed.
B1: 107 (CEA-Knob-Fab-+Hole) (bispecific antibody, human IgG4 S228P, kappa, F234A L235A)
heavy: EVQLVESGGGFVQAGESLTLSCTSSTLTFTPYRMAWYRQAPGKQRDLVADISSGDGRTTNYADFAKGRFTISRDNIKNTVFLRMTNLKPEDTAVYYCNTFVSFVGIARSWGQGTQVTVSSESKYGPPCPPCPAPEAAGGPSVFLFPPKPKDTLMISRTPEVTCVVVDVSQEDPEVQFNWYVDGVEVHNAKTKPREEQFNSTYRVVSVLTVLHQDWLNGKEYKCKVSNKGLPSSIEKTISKAKGQPREPQVYTLPPCQEEMTKNQVSLWCLVKGFYPSDIAVEWESNGQPENNYKTTPPVLDSDGSFFLYSRLTVDKSRWQEGNVFSCSVMHEALHNHYTQKSLSLSLGGGGSGGGGEVKLLESGGGLVQPKGSLKLSCAASGFTFNTYAMNWVRQAPGKGLEWVARIRSKYNNYATYYADSVKDRFTISRDDSQSILYLQMNNLKTEDTAMYYCVRHGNFGNSYVSWFAYWGQGTLVTVSSASTKGPSVFPLAPCSRSTSESTAALGCLVKDYFPEPVTVSWNSGALTSGVHTFPAVLQSSGLYSLSSVVTVPSSSLGTKTYTCNVDHKPSNTKVDKRV
chain: ESKYGPPCPPCPAPEAAGGPSVFLFPPKPKDTLMISRTPEVTCVVVDVSQEDPEVQFNWYVDGVEVHNAKTKPREEQFNSTYRVVSVLTVLHQDWLNGKEYKCKVSNKGLPSSIEKTISKAKGQPREPQVCTLPPSQEEMTKNQVSLSCAVKGFYPSDIAVEWESNGQPENNYKTTPPVLDSDGSFFLVSRLTVDKSRWQEGNVFSCSVMHEALHNRFTQKSLSLSL
light: QAVVTQESALTTSPGETVTLTCRSSTGAVTTSNYANWVQEKPDHLFTGLIGGTNKRAPGVPARFSGSLIGDKAALTITGAQTEDEAIYFCALWYSNLWVFGGGTKVEIKRTVAAPSVFIFPPSDEQLKSGTASVVCLLNNFYPREAKVQWKVDNALQSGNSQESVTEQDSKDSTYSLSSTLTLSKADYEKHKVYACEVTHQGLSSPVTKSFNRGEC
notes: TA1 Fab, C17 VHH, IgG4 Fc KIH
B2: 109 (Knob-Fab+Hole-CEA) (bispecific antibody, human IgG4 S228P, kappa, F234A L235A)
heavy: ESKYGPPCPPCPAPEAAGGPSVFLFPPKPKDTLMISRTPEVTCVVVDVSQEDPEVQFNWYVDGVEVHNAKTKPREEQFNSTYRVVSVLTVLHQDWLNGKEYKCKVSNKGLPSSIEKTISKAKGQPREPQVYTLPPCQEEMTKNQVSLWCLVKGFYPSDIAVEWESNGQPENNYKTTPPVLDSDGSFFLYSRLTVDKSRWQEGNVFSCSVMHEALHNHYTQKSLSLSLGGGGSGGGGSEVKLLESGGGLVQPKGSLKLSCAASGFTFNTYAMNWVRQAPGKGLEWVARIRSKYNNYATYYADSVKDRFTISRDDSQSILYLQMNNLKTEDTAMYYCVRHGNFGNSYVSWFAYWGQGTLVTVSSASTKGPSVFPLAPCSRSTSESTAALGCLVKDYFPEPVTVSWNSGALTSGVHTFPAVLQSSGLYSLSSVVTVPSSSLGTKTYTCNVDHKPSNTKVDKRV
chain: ESKYGPPCPPCPAPEAAGGPSVFLFPPKPKDTLMISRTPEVTCVVVDVSQEDPEVQFNWYVDGVEVHNAKTKPREEQFNSTYRVVSVLTVLHQDWLNGKEYKCKVSNKGLPSSIEKTISKAKGQPREPQVCTLPPSQEEMTKNQVSLSCAVKGFYPSDIAVEWESNGQPENNYKTTPPVLDSDGSFFLVSRLTVDKSRWQEGNVFSCSVMHEALHNRFTQKSLSLSLGGGGSGGGGSEVQLVESGGGFVQAGESLTLSCTSSTLTFTPYRMAWYRQAPGKQRDLVADISSGDGRTTNYADFAKGRFTISRDNIKNTVFLRMTNLKPEDTAVYYCNTFVSFVGIARSWGQGTQVTVSS
light: B1 light
notes: TA1 Fab, C17 VHH, IgG4 Fc KIH
B3: 110 (CEA-Knob+Hole-Fab) (bispecific antibody, human IgG4 S228P, kappa, F234A L235A)
chain: EVQLVESGGGFVQAGESLTLSCTSSTLTFTPYRMAWYRQAPGKQRDLVADISSGDGRTTNYADFAKGRFTISRDNIKNTVFLRMTNLKPEDTAVYYCNTFVSFVGIARSWGQGTQVTVSSESKYGPPCPPCPAPEAAGGPSVFLFPPKPKDTLMISRTPEVTCVVVDVSQEDPEVQFNWYVDGVEVHNAKTKPREEQFNSTYRVVSVLTVLHQDWLNGKEYKCKVSNKGLPSSIEKTISKAKGQPREPQVYTLPPCQEEMTKNQVSLWCLVKGFYPSDIAVEWESNGQPENNYKTTPPVLDSDGSFFLYSRLTVDKSRWQEGNVFSCSVMHEALHNHYTQKSLSLSL
heavy: B2 heavy with Y131C, C136S, W148S, L150A, Y189V, H217R, Y218F
light: B1 light
notes: TA1 Fab, C17 VHH, IgG4 Fc KIH
B4: 112 (Knob-CEA+Hole-Fab) (bispecific antibody, human IgG4 S228P, kappa, F234A L235A)
chain: B2 chain with C131Y, S136C, S148W, A150L, V189Y, R217H, F218Y
heavy: B2 heavy with Y131C, C136S, W148S, L150A, Y189V, H217R, Y218F
light: B1 light
notes: TA1 Fab, C17 VHH, IgG4 Fc KIH
B5: 111 (Knob+CEA-Hole-Fab) (bispecific antibody, human IgG4 S228P, kappa, F234A L235A)
chain: B1 chain with C131Y, S136C, S148W, A150L, V189Y, R217H, F218Y
heavy: EVQLVESGGGFVQAGESLTLSCTSSTLTFTPYRMAWYRQAPGKQRDLVADISSGDGRTTNYADFAKGRFTISRDNIKNTVFLRMTNLKPEDTAVYYCNTFVSFVGIARSWGQGTQVTVSSESKYGPPCPPCPAPEAAGGPSVFLFPPKPKDTLMISRTPEVTCVVVDVSQEDPEVQFNWYVDGVEVHNAKTKPREEQFNSTYRVVSVLTVLHQDWLNGKEYKCKVSNKGLPSSIEKTISKAKGQPREPQVCTLPPSQEEMTKNQVSLSCAVKGFYPSDIAVEWESNGQPENNYKTTPPVLDSDGSFFLVSRLTVDKSRWQEGNVFSCSVMHEALHNRFTQKSLSLSLGGGGSGGGGSEVKLLESGGGLVQPKGSLKLSCAASGFTFNTYAMNWVRQAPGKGLEWVARIRSKYNNYATYYADSVKDRFTISRDDSQSILYLQMNNLKTEDTAMYYCVRHGNFGNSYVSWFAYWGQGTLVTVSSASTKGPSVFPLAPCSRSTSESTAALGCLVKDYFPEPVTVSWNSGALTSGVHTFPAVLQSSGLYSLSSVVTVPSSSLGTKTYTCNVDHKPSNTKVDKRV
light: B1 light
notes: TA1 Fab, C17 VHH, IgG4 Fc KIH
B6: 108 (Knob-Fab+CEA-Hole) (bispecific antibody, human IgG4 S228P, kappa, F234A L235A)
heavy: B2 heavy
chain: B3 chain with Y251C, C256S, W268S, L270A, Y309V, H337R, Y338F
light: B1 light
notes: TA1 Fab, C17 VHH, IgG4 Fc KIH

These binders were tested against T1, human CD3ε/δ (ACRO systems, CDD-H52W1) (human, UniProt P07766 23-126; P04234 22-105) (assay: serum-stability ELISA, Day 10 vs Day 0).
T1 construct: bought recombinant heterodimer; also called human CD3 epsilon/delta; Human CD3ε/CD3δ
Experimental: (§1) The samples to be tested were centrifuged at 4° C. at 12000 rpm for 30 minutes to remove the precipitate. 200 μl of each sample to be tested (0.5 mg/ml) was collected in a 1.5 ml Eppendorf tube. An equal volume of human serum (GEMINI, H2OYOOK) was added, mixed thoroughly, and the mixture was incubated in a 37° C. constant temperature CO₂ incubator. For a total of 10 days, 40 μl samples was aspirated every day and stored at −20° C.
(§2) Enzyme-linked immunosorbent assay (ELISA) was used to test the bispecific antibodies' binding to human CEA and human CD3 epsilon/delta antigen. The steps are as follows: the antigen human CD3ε/δ (ACRO systems, CDD-H52W1) and the recombinant tumor antigen human CEA (CEACAM-5/CD66e, ACRO systems, CE5-H5226) were diluted to 1 μg/ml with PBS, and then added to the 96-well plate at 100 μl per well. The wells were coated overnight at 4° C. After washing 3 times with 0.05% PBST, 200 μl 5% skimmed milk powder was added to each well and incubated at 37° C. for 2 h. After washing 3 times with 0.05% PBST, 100 μl primary antibody sample (10 μg/ml) was added to each well, and incubated at 37° C. for 2 h. After washing 3 times with 0.05% PBST, 100 μl (1:6000) diluted secondary antibody goat anti-human Fc-HRP (sigma, A2170) was added to each well, incubated at room temperature for 1 h. After washing 8 times with 0.05% PBST, 50 μl TMB color developing solution was added to each well, and incubated at room temperature for 10-15 min. 50 μl 1 mM HCl was added to each well to stop the color development. 450 nm Absorbance (OD) was read.
(§3) The binding of antibodies to antigen was calculated according to the following formula: Binding (%)=[(ODdayn−ODb)/(ODday0−ODb)]×100%. ODdayn: experimental well (the protein was stored in the serum for n days); ODday0: control well (the protein was not stored in the serum); ODb: blank well (no primary antibody added).

Binding % | Binder
102% | B1
62.1% | B2
56.1% | B3
98.4% | B4
78.2% | B5
66.7% | B6

What follows are binders tested against T1, human CD3ε/δ (ACRO systems, CDD-H52W1) (assay: serum-stability ELISA, Day 9 vs Day 0).
Experimental: as §1, §2, §3

Binding % | Binder
118% | B1
83.3% | B2
77% | B3
102% | B4
96.5% | B5
98.5% | B6

Each binder was assayed against T1, human CD3ε/δ (ACRO systems, CDD-H52W1) (assay: serum-stability ELISA, Day 2 vs Day 0).
Experimental: as §1, §2, §3

Binding % | Binder
123% | B1
88.5% | B2
74.3% | B3
102% | B4
99.3% | B5
98% | B6

These binders were tested against T1, human CD3ε/δ (ACRO systems, CDD-H52W1) (assay: serum-stability ELISA, Day 1 vs Day 0).
Experimental: as §1, §2, §3

Binding % | Binder
118% | B1
97.5% | B2
68.5% | B3
99% | B4
93.2% | B5
93% | B6

The binders below were run against T1, human CD3ε/δ (ACRO systems, CDD-H52W1) (assay: serum-stability ELISA, Day 7 vs Day 0).
Experimental: as §1, §2, §3

Binding % | Binder
125% | B1
87.6% | B2
77.5% | B3
104% | B4
106% | B5
98.8% | B6

The binders below were run against T1, human CD3ε/δ (ACRO systems, CDD-H52W1) (assay: serum-stability ELISA, Day 5 vs Day 0).
Experimental: as §1, §2, §3

Binding % | Binder
122% | B1
88% | B2
78.1% | B3
104% | B4
103% | B5
96.1% | B6

These binders were tested against T1, human CD3ε/δ (ACRO systems, CDD-H52W1) (assay: serum-stability ELISA, Day 0 (reference)).
Experimental: as §1, §2, §3

Binding % | Binder
100% | B1
100% | B2
100% | B3
100% | B4
100% | B5
100% | B6

These binders were tested against T1, human CD3ε/δ (ACRO systems, CDD-H52W1) (assay: serum-stability ELISA, Day 6 vs Day 0).
Experimental: as §1, §2, §3

Binding % | Binder
123% | B1
85.7% | B2
76.9% | B3
110% | B4
99.2% | B5
98.4% | B6
